Data: US7452965
Bridge positions count the residues as written; N and C are the ends. Ends that are not written are not given here.

Columns and labels:
[1] = biological target: HT29 protein (unidentified protease-sensitive cell surface protein on HT29 colon carcinoma cells that the RPM peptide binds); assay: competition with RPM displaying phage on HT29 cells, real time PCR
[2] = biological target: HT29 protein (unidentified protease-sensitive cell surface protein on HT29 colon carcinoma cells that the RPM peptide binds); assay: competition with RPM phage on HT29 cells, real time PCR
[3] = biological target: HT29 protein (unidentified protease-sensitive cell surface protein on HT29 colon carcinoma cells that the RPM peptide binds); assay: competition of synthetic peptide with RPM phage on HT29 cells, real time PCR; percent of phage bound without competitor
[4] = biological target: HT29 protein (unidentified protease-sensitive cell surface protein on HT29 colon carcinoma cells that the RPM peptide binds); assay: competition of non-specific peptide with RPM phage on HT29 cells, real time PCR; 100% means no competition

## CPIEDRPAC [RPA peptide (RPM peptide with the methionine mutated to alanine)]
[1]
  EC50: 545 µM
  fold shift of the EC50 of competition against the RPM peptide: 100 fold

## CPIEDAPMC [APM peptide (RPM peptide with the arginine mutated to alanine)]
[1]
  EC50: 690 µM
  fold shift of the EC50 of competition against the RPM peptide: 100 fold

## CPIRPMEDC [RPM middle peptide … (SEQ ID NO: 137)]
[2]
  fold less potent than RPM in competition: > 100 fold

## CPIEDRPMC (disulfide 1-9 (inferred)) [RPM peptide … (SEQ ID NO: 134), synthetic, oxidized to form a disulfide bond]
[1]
  EC50: 5 µM
[3]
  percent of RPM phage binding remaining: < 4%

## CKHLGPQLC (disulfide 1-9 (inferred)) [non-specific peptide … (SEQ ID NO: 135), synthetic, oxidized to form a disulfide bond]
[4]
  percent of RPM phage binding remaining: 100%
